Test results: patent US20180346602A1

Key:
[1] = target: anti-VEGF/ANG2 antibody (IgG1 subclass with mutations P329G/L234A/L235A/I253A/H310A/H435A) [IgG part: P01857]; assay: sandwich ELISA assay A; capture M1.7.10-Bi; antibody 1 at 6 ng/mL
[2] = target: anti-VEGF/ANG2 antibody (IgG1 subclass with mutations P329G/L234A/L235A) [IgG part: P01857]; assay: sandwich ELISA assay A; capture M1.7.10-Bi; antibody 2 at 50 ng/mL
[3] = target: anti-VEGF/ANG2 antibody (wild-type IgG1 subclass) [IgG part: P01857]; assay: sandwich ELISA assay A; capture M1.7.10-Bi; antibody 5 at 100 ng/mL
[4] = target: anti-VEGF/ANG2 antibody (IgG1 subclass with mutations P329G/L234A/L235A) [IgG part: P01857]; assay: sandwich ELISA assay A; capture M1.7.10-Bi; antibody 2 at 0 ng/mL (blank)
[5] = target: anti-IGF-1R antibody (IgG1 subclass with mutations I253A/H310A/H435A) (human) [IgG part: P01857]; assay: sandwich ELISA assay C; capture on SA plate; tracer FcγRI-Dig; analyte 3 ng/mL
[6] = target: anti-P-Selectin antibody (IgG4 subclass with mutations S228P/L235E) (human) [IgG part: P01861]; assay: as above
[7] = target: anti-VEGF/ANG2 antibody (IgG1 subclass with mutations P329G/L234A/L235A) (human) [IgG part: P01857]; assay: as above
[8] = target: anti-VEGF/ANG2 antibody (IgG1 subclass with mutations P329G/L234A/L235A/I253A/H310A/H435A) (human) [IgG part: P01857]; assay: as above
[9] = target: anti-IGF-1R antibody (IgG1 subclass with mutations I253A/H310A/H435A) (human) [IgG part: P01857]; assay: sandwich ELISA assay C; capture on SA plate; tracer FcγRI-Dig; analyte 6 ng/mL
[10] = target: anti-P-Selectin antibody (IgG4 subclass with mutations S228P/L235E) (human) [IgG part: P01861]; assay: as above
[11] = target: anti-VEGF/ANG2 antibody (IgG1 subclass with mutations P329G/L234A/L235A) (human) [IgG part: P01857]; assay: as above
[12] = target: anti-VEGF/ANG2 antibody (IgG1 subclass with mutations P329G/L234A/L235A/I253A/H310A/H435A) (human) [IgG part: P01857]; assay: as above
[13] = target: anti-IGF-1R antibody (IgG1 subclass with mutations I253A/H310A/H435A) (human) [IgG part: P01857]; assay: sandwich ELISA assay C; capture on SA plate; tracer FcγRI-Dig; analyte 13 ng/mL
[14] = target: anti-P-Selectin antibody (IgG4 subclass with mutations S228P/L235E) (human) [IgG part: P01861]; assay: as above
[15] = target: anti-VEGF/ANG2 antibody (IgG1 subclass with mutations P329G/L234A/L235A) (human) [IgG part: P01857]; assay: as above
[16] = target: anti-VEGF/ANG2 antibody (IgG1 subclass with mutations P329G/L234A/L235A/I253A/H310A/H435A) (human) [IgG part: P01857]; assay: as above
[17] = target: anti-IGF-1R antibody (IgG1 subclass with mutations I253A/H310A/H435A) (human) [IgG part: P01857]; assay: sandwich ELISA assay C; capture on SA plate; tracer FcγRI-Dig; analyte 25 ng/mL
[18] = target: anti-P-Selectin antibody (IgG4 subclass with mutations S228P/L235E) (human) [IgG part: P01861]; assay: as above
[19] = target: anti-VEGF/ANG2 antibody (IgG1 subclass with mutations P329G/L234A/L235A) (human) [IgG part: P01857]; assay: as above
[20] = target: anti-VEGF/ANG2 antibody (IgG1 subclass with mutations P329G/L234A/L235A/I253A/H310A/H435A) (human) [IgG part: P01857]; assay: as above
[21] = target: anti-IGF-1R antibody (IgG1 subclass with mutations I253A/H310A/H435A) (human) [IgG part: P01857]; assay: sandwich ELISA assay B; capture on SA plate; tracer M1.7.10-Dig; analyte 50 ng/mL
[22] = target: anti-P-Selectin antibody (IgG4 subclass with mutations S228P/L235E) (human) [IgG part: P01861]; assay: as above
[23] = target: anti-VEGF/ANG2 antibody (IgG1 subclass with mutations P329G/L234A/L235A) (human) [IgG part: P01857]; assay: as above
[24] = target: anti-VEGF/ANG2 antibody (IgG1 subclass with mutations P329G/L234A/L235A/I253A/H310A/H435A) (human) [IgG part: P01857]; assay: as above

Row | signal [OD405 nm] [1] | signal [OD405 nm] [2] | signal [OD405 nm] [3] | signal [OD405 nm] [4] | signal [OD405 nm] [5] | signal [OD405 nm] [6] | signal [OD405 nm] [7] | signal [OD405 nm] [8] | signal [OD405 nm] [9] | signal [OD405 nm] [10] | signal [OD405 nm] [11] | signal [OD405 nm] [12] | signal [OD405 nm] [13] | signal [OD405 nm] [14] | signal [OD405 nm] [15] | signal [OD405 nm] [16] | signal [OD405 nm] [17] | signal [OD405 nm] [18] | signal [OD405 nm] [19] | signal [OD405 nm] [20] | Binder | further results
1 | 0.057 OD405 nm | 0.065 OD405 nm | 0.056 OD405 nm | 0.048 OD405 nm | 0.083 OD405 nm | 0.05 OD405 nm | 0.068 OD405 nm | 0.066 OD405 nm | 0.104 OD405 nm | 0.051 OD405 nm | 0.06 OD405 nm | 0.06 OD405 nm | 0.175 OD405 nm | 0.052 OD405 nm | 0.061 OD405 nm | 0.064 OD405 nm | 0.401 OD405 nm | 0.06 OD405 nm | 0.063 OD405 nm | 0.081 OD405 nm | anti-AAA variant Fc-region antibody M1.6.22 (antibody, V domains shown) VH: EVQLVESGGDLVKPGGSLKLSCAASGFTFSSYGMSWVRQTPDKRLEWVATISSGGSYIYYPDSVKGRFTISRDNAKNTLYLQMSSLKSEDTAMYYCARLGMITTGYAMDYWGQGTSVTVSS VL: DVLMTQTPLSLPVSLGDQASISCRSSQTIVHSTGHTYLEWFLQKPGQSPKLLIYKVSNRFSGVPDRFSGSGSGTDFTLKISRVEAEDLGVYYCFQGSHVPYTFGGGTKLEIK | signal [OD405 nm] [21]: 2.9 OD405 nm; signal [OD405 nm] [22]: 0.047 OD405 nm; signal [OD405 nm] [23]: 0.127 OD405 nm; signal [OD405 nm] [24]: 0.05 OD405 nm
2 | 0.042 OD405 nm | 2.96 OD405 nm | 0.042 OD405 nm | 0.042 OD405 nm | 1.21 OD405 nm | 1.19 OD405 nm | 1.22 OD405 nm | 1.16 OD405 nm | 1.21 OD405 nm | 1.18 OD405 nm | 1.22 OD405 nm | 1.17 OD405 nm | 1.21 OD405 nm | 1.16 OD405 nm | 1.23 OD405 nm | 1.14 OD405 nm | 1.2 OD405 nm | 1.17 OD405 nm | 1.21 OD405 nm | 1.07 OD405 nm | anti-variant (human) Fc-region antibody M1.3.17 (antibody, V domains shown) VH: EVKLLESGGGLVQPGGSLKLSCAASGIDFRRYWMNWVRQAPGKGLEWIGEIDPDSSTINYTPSLKDKFIISRDNAKNTMYLQMRKVRSEDTALYYCARPYDYGAWFAYWGQGTLVTVSA VL: QAVVTQESALTTSPGETVTLTCRSTTGAVTTSNYANWVQEKPDHLFTGLIGGTNKRAPGVPARFSGSLIGDKAALTITGAQTEDEAIYFCALWYSDHWVFGGGTKLTVL | signal [OD405 nm] [21]: 0.048 OD405 nm; signal [OD405 nm] [22]: 0.049 OD405 nm; signal [OD405 nm] [23]: 0.215 OD405 nm; signal [OD405 nm] [24]: 0.035 OD405 nm
3 | 0.045 OD405 nm | 2.6 OD405 nm | 0.042 OD405 nm | 0.043 OD405 nm | 0.077 OD405 nm | 0.053 OD405 nm | 0.057 OD405 nm | 0.094 OD405 nm | 0.069 OD405 nm | 0.053 OD405 nm | 0.06 OD405 nm | 0.079 OD405 nm | 0.058 OD405 nm | 0.066 OD405 nm | 0.06 OD405 nm | 0.085 OD405 nm | 0.073 OD405 nm | 0.07 OD405 nm | 0.083 OD405 nm | 0.082 OD405 nm | anti-variant (human) Fc-region antibody M1.7.24 (antibody, V domains shown) VH: EVKLLESGGGLVQPGGSLKLSCAASGFDFSRYWMNWVRQAPGKGLEWIGEITPDSSTINYTPSLKDKFIISRDNAKNTLYLQMIKVRSEDTALYYCVRPYDYGAWFASWGQGTLVTVSA VL: QAVVTQESALTTSPGETVTLTCRSSTGAVTTSNYANWVQEKPDHLFTGLIGGTNKRAPGVPARFSGSLIGDKAALTITGAQTEDEAIYFCALWYSNHWVFGGGTKLTVL | signal [OD405 nm] [21]: 0.064 OD405 nm; signal [OD405 nm] [22]: 0.043 OD405 nm; signal [OD405 nm] [23]: 3.17 OD405 nm; signal [OD405 nm] [24]: 0.06 OD405 nm
